Reference: patent US9724388B2, “FGF-18 compound dosing regimen” (MERCK PATENT GMBH, priority 2014, dated 2017)
Read-outs that look alike come from different tables or passages of the source.

Experiments:
[1] = in vivo; cited from earlier work
[2] = system: Primary articular porcine chondrocytes; test: Porcine chondrocyte proliferation with or without IL1α challenge; assay type: cell-based, pig; conditions: 100 ng/mL, 8 days
Method: Porcine chondrocytes were isolated from the cartilage of a femoral head of a pig hip (pigs were approximately one year old). After dissection of the joints, the cartilage was harvested and digested 45 minutes with collagenase 0.25% (1/10 dilution of collagenase NBG4 2.5% in HAM's F12) at room temperature. The loosened cells were discarded and the cartilage further digested overnight with collagenase 0.1% (1/25 dilution of collagenase NBG4 2.5% in HAM's F12) at 37° C. to extract the chondrocytes. For this study, the chondrocytes were cultured in monolayer.
Primary articular porcine chondrocytes were stimulated or not with 10 ng/mL IL1α and were either treated immediately or 6 hours later with anakinra 100 ng/mL and/or trFGF-18 100 ng/mL. Each condition was performed in 4 or 6-plicates. As a control, cells were also cultured with anakinra alone, trFGF-18 alone or in the absence of any treatment (medium).
Pre-culture: After cell isolation porcine chondrocytes were inoculated at 20,000 cells/cm^2 and cultivated for one week in complete HAM's F12. Cells were then harvested with accutase, counted and used as described below.
For cells treated directly with anakinra: Chondrocytes were inoculated in a 24-well plate at 15,000 cells/well in 0.5 mL of complete HAM's F12. Then 0.25 mL of trFGF-18 400 ng/mL and/or 0.25 mL of anakinra 400 ng/mL were added to the cells. In the challenged samples, 10 μL of IL1α at 1,000 ng/mL were also added to the cells. trFGF-18, anakinra and IL1α were all diluted in complete HAM's F12. The final volume in the culture well was adjusted at 1 mL with complete HAM's F12. Final concentrations were 10 ng/mL IL1α, 100 ng/mL trFGF-18 and 100 ng/mL anakinra and the total culture time was eight days. A complete medium change was performed after four days. N=4.
For cells treated with anakinra and trFGF-18 6 hours after the IL1α challenge: Chondrocytes were inoculated in a 24-well plate at 15,000 cells/well in 1 mL of complete HAM's F12 containing or not containing IL1α 10 ng/mL. After 6 hours the medium was removed and replaced with 0.25 mL trFGF-18 400 ng/mL and/or 0.25 mL of anakinra 400 ng/mL. In the challenged samples, 0.25 mL of IL1α at 40 ng/mL was also added to the cells. trFGF-18, anakinra and IL1α were all diluted in complete HAM's F12. The final volume in the culture well was adjusted at 1 mL with complete HAM's F12. Final concentrations were 10 ng/mL IL1α, 100 ng/mL trFGF-18 and 100 ng/mL anakinra and the total culture time was eight days. A complete medium change was performed after four days. N=6.
After eight days of culture, cells were harvested with accutase and resulting cell suspensions were analyzed for cell concentration and cell viability with a ViCell™ cell analyzer (from Beckman Coulter). Statistical analysis consisted in a 1-way ANOVA followed by a Dunnett post-hoc analysis.

[3] = system: medial meniscal tear in the right knee joint; assay type: in vivo, rat; conditions: for overall morphology: three injections
Method: After the sacrifice, the right knee was removed and decalcified in 5% formic acid for 4-6 d before cutting in half in the frontal plane and embedding in paraffin wax. Three sections were cut in 200 μm steps, stained with toluidine blue, and analyzed using ImagePro PIus™ software (Media Cybernetics). In scoring the three sections of the joint, the worst-case scenario for the two halves on each slide was determined for the cartilage lesion as the cartilage degeneration width (μm). This reflects the areas of tibial cartilage lesion in which both chondrocyte and proteoglycan loss extend ≧50% of the cartilage thickness. The measurement was taken over the area of greatest lesion severity in each of the three zones across the tibial surface.
A treatment group Mean±SE for each score and measurement was determined.
Data was analyzed using a one-way analysis of variance (1-way ANOVA) or Kruskal-Wallis test (non-parametric), along with an appropriate multiple comparison post-test. Right knee caliper measurements were compared to left using a Student's t-test. Unless indicated, Bolder BioPATH, Inc. performs statistical analysis on raw (untransformed) data only. […] Significance for all tests was set at p≦0.05. Comparisons were made between each group and the vehicle control group, as well as between pairs.
Male Lewis rats underwent surgery (under anesthesia with isoflurane) to induce a medial meniscal tear in the right knee joint. Animals were dosed IA with vehicle or FGF-18 on one of two different regimens (see table below), then terminated on day 105. Knees had caliper measurements taken at baseline and days 21, 42, 56, 84, and 105. Serum was evaluated for α2macroglobulin levels at baseline and on days 21, and 105, as well as one week after the final dose (day 42 or 84). Right knees were collected for histopathology evaluation.

[4] = system: ACLT+tMx model of instability-induced OA; test: ACLT+tMx rat OA model, neo-formation of cartilaginous tissue (Safranin-O quantification); assay type: in vivo; conditions: for dose at which dose-dependent neo-formation of cartilaginous tissue became significant, medial tibia: FIG. 2b
Method: The anterior cruciate ligament transection with resection of the medial meniscus (ACLT+tMx) model of instability-induced OA was performed in male Lewis rats 10-15 weeks of age. Briefly, under anesthesia with isoflurane, the joint capsule of the right knee of each rat was opened, the anterior cruciate and meniscus fixating ligaments were sharply transected, the meniscus was removed and the capsule, muscles and skin closed by sutures. Animals were randomly allocated into 10 groups of n=10 each. The following dosages were investigated: 0, 0.3, 1, 3 and 10 μg per intra-articular injection. Groups 1-5 received one cycle of three single injections at weekly intervals, group 6-10 three single injections at monthly intervals. Intra-articular treatment was started three weeks post-surgery. At this time pathophysiological changes are already mainifest, e.g., cartilage matrix loss. Animals were euthanized 17 weeks after surgery and joints were investigated.

B1: trFGF-18: recombinant truncated form of human FGF-18 (170 amino acids, SEQ ID NO: 2), produced in E. coli (protein)
chain: MEENVDFRIHVENQTRARDDVSRKQLRLYQLYSRTSGKHIQVLGRRISARGEDGDKYAQLLVETDTFGSQVRIKGKETEFYLCMNRKGKLVGKPDGTSKECVFIEKVLENNYTALMSAKYSGWYVGFTKKGRPRKGPKTRENQQDVHFMKRYPKGQPELQKPFKYTTVTK
modifications: Recombinant truncated FGF-18(trFGF-18)
For B1, the “half-life in the joint” value [1] is listed as “less than 24 hours”, the “stimulation of proliferation vs control (medium, IL1α 10 ng/mL)” value ([2]; first experiment (direct treatment)) is listed as 2.38 fold and the “stimulation of proliferation vs control (medium, IL1α 10 ng/mL)” value ([2]; second experiment (6-hour delay)) is listed as 2.44 fold. The “increase in cell numbers vs control (medium, no IL1α)” value ([2]; first experiment (direct treatment, FIG. 6A)) was 11.25 fold, the “increase in cell numbers vs control (medium, no IL1α)” value ([2]; second experiment (6-hour delay, FIG. 6B)) was 7.75 fold and the “extent of injury over the tibial surface (histopathology), particularly collagen damage” value ([3]; 10 μg IA, all regimens) was “generally increased”. The “severity of injury over the tibial surface (histopathology)” value ([3]; 10 μg IA, all regimens) was “reducing its severity”, the structural benefit ([3]; bi-weekly injection scheme, 10 μg IA) was “provides interesting structural benefits” and the “structural benefit (joint scores, tibial cartilage degeneration width; FIGS. 3, 4, 5)” value ([3]; monthly injection scheme, 10 μg IA) was “highest”. The “side effects of treatment (histopathology)” value ([3]; rat, in vivo) was “cartilage hypertrophy, synovitis, and synovial fibrosis”, the “swelling in the treated knee” value ([3]; rat, in vivo) was “significantly increased” and the overall morphology ([3]; once every 2 weeks (days 21, 35, 49)) was “good overall morphology”. For the same molecule, the overall morphology ([3]; once monthly (days 21, 49, 77)) was “best overall morphology”, the “dose at which dose-dependent neo-formation of cartilaginous tissue became significant, lateral tibia” value ([4]; independently of the injection regimen (3 i.a. injections weekly or monthly), FIG. 2a) was 1 μg/joint and the “dose at which dose-dependent neo-formation of cartilaginous tissue became significant, medial tibia” value ([4]; one monthly regimen) was 0.3 μg/joint. For the same molecule, the “dose at which dose-dependent neo-formation of cartilaginous tissue became significant, medial tibia” value ([4]; one weekly regimen) was 1 μg/joint.
